Measured values from patent US20180127510A1 (INSERM INSTITUT NATIONAL DE LA SANT ET DE LA RECHERCHE M …, published 2018).
Positions count from the first letter of the chain named. Blank lines part the entries; values can stand above or below the binder they belong to.

Columns and labels:
[1] = biological target: T1, human mature (34+14-kDa) Cath-D (human, UniProt P07339 65-162; P07339 169-412); experiment: cleavage of fluorogenic substrate M0938 by mature Cath-D at pH 6, competitive inhibition fit (n=3)
T1 construct: domain: 14-kDa light chain;domain: 34-kDa heavy chain; Purified from human liver (Sigma Aldrich); also called mature Cath-D; mature cath-D
T1 sequence (P07339 65-162 limits assumed, chain 1 of 2): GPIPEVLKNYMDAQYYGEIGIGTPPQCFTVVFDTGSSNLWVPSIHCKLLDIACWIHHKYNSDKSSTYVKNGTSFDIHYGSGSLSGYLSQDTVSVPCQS
T1 sequence (P07339 169-412 limits assumed, chain 2 of 2): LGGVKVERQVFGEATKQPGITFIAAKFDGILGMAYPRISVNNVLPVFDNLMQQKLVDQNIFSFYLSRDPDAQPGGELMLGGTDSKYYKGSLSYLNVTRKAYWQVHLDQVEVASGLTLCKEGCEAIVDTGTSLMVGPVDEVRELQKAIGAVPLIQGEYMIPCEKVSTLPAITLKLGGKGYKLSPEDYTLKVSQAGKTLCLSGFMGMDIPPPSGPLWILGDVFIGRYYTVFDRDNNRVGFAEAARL

[2] = biological target: T2, human 51-kDa pseudo-Cath-D (human, UniProt P07339 47-412, limits assumed); experiment: cleavage of fluorogenic substrate M2295 by pseudo-Cath-D at pH 6, competitive inhibition fit (n=3)
T2 construct: domain: 51-kDa pseudo-Cath-D
T2 sequence (P07339 47-412 limits assumed): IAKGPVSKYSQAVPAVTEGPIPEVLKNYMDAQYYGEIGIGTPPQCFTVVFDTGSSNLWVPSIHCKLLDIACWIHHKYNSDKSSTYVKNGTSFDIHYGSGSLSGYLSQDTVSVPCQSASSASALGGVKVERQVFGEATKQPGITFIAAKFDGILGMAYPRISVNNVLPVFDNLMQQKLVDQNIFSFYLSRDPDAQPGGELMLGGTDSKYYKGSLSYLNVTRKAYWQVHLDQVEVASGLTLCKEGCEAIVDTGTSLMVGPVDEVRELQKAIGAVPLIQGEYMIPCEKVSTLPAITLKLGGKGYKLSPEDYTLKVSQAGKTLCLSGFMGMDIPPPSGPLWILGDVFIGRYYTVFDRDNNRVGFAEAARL

Ki [1]: 24 nM | Ki [2]: 754 nM
B1: anti-Cath-D scFv E2 (scFv, V domains shown)
VH: EVQLVESGGSLVKPGGSLRLSCAASGFTFSNSYMNWVRQAPGKGLEWISYISGSSRYSYADFVKGRFTISRDNATNSLYLQMNSLRAEDTAVYYCVRSSNSYFGGGMDVWGRGTLVTVSS
VL: QSVLTQPASVSGSPGQSITISCAGTSSDVGGSYGVSWYQQHPGKAPKLMIYGDSYRPSGVSNRFSGSKSGNTASLTISGLQAEDEADYYCSSYTNYSTRVFGGGTKLAVL

Ki [1]: 100 nM | Ki [2]: 212 nM
B2: anti-Cath-D scFv F1 (scFv, V domains shown)
VH: EVQLVESGGSLVKPGGSLRLSCAASGFTSNNYMNWVRQAPGKGLEWISYISGSSRYISYADFVKGRFTISRDNATNSLYLQMNSLRAEDTAVYYCVRSSNSGGMDVWGRGTLVTVSS
VL: B1 VL with S32Y, G52Y, N95S, Y96N
